Results taken from US20190263932A1 (Eli Lilly, published 2019).
Changes are numbered by the printed parent chain.

B1: mAb A (antibody, human IgG4 S228P, kappa, F234A L235A, V domains shown)
VH: EVQLVESGGGLVKPGGSLRLSCAASGFTFSGVSINWVRQAPGKGLEWVSSETTSSGTIYYADSVKGRFTISRDNAKNSLYLQMNSLRAEDTAVYYCARSYYYGMDVWGQGTTVTVSS
VL: DIVMTQTPLSSPVTLGQPASISCRSSQSLVHRNGNTYLSWLQQRPGQPPRLLIYKISNRFSGVPDRFSGSGAGTDFTLKISRVEAEDVGVYYCMQARQFPLTFGGGTKVEIKR
notes: Human IgG4PAA/Kappa
B2: mAb B (antibody, human IgG4 S228P, kappa, F234A L235A)
heavy: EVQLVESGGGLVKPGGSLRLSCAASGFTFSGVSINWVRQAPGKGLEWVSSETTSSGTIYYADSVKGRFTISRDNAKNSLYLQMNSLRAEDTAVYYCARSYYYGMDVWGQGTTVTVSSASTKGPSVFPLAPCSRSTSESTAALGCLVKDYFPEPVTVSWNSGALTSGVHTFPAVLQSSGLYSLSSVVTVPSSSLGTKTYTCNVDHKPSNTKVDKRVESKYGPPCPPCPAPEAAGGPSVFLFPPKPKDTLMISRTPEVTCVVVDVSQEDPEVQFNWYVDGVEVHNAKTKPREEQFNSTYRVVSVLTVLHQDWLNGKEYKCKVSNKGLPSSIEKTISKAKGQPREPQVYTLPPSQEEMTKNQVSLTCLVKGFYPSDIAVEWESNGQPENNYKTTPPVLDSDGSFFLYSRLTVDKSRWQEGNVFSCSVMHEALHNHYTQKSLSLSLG
light: DIVMTQTPLSSPVTLGQPASISCRSSQSLVHRAGNTYLSWLQQRPGQPPRLLIYKISNRFSGVPDRFSGSGAGTDFTLKISRVEAEDVGVYYCMQARQFPLTFGGGTKVEIKRTVAAPSVFIFPPSDEQLKSGTASVVCLLNNFYPREAKVQWKVDNALQSGNSQESVTEQDSKDSTYSLSSTLTLSKADYEKHKVYACEVTHQGLSSPVTKSFNRGEC
notes: Human IgG4PAA/Kappa
B3: mAb C (antibody, human IgG4 S228P, kappa, F234A L235A)
heavy: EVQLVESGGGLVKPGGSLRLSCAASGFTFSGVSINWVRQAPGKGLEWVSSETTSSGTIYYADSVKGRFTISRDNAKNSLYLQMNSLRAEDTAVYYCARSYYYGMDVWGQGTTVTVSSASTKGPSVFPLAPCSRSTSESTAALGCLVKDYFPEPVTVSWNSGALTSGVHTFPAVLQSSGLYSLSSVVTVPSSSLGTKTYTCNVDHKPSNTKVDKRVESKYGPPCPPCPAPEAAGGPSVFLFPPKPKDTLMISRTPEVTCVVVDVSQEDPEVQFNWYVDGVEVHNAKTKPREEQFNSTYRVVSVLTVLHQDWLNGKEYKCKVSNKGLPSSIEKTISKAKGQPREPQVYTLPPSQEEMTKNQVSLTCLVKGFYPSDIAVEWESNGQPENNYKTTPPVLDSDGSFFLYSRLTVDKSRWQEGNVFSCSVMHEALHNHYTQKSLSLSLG
light: B2 light with A33Q
notes: Human IgG4PAA/Kappa

These binders were tested against T1, recombinant human TrkA protein (human, UniProt P04629-2 34-407, limits assumed) (assay: NGF-blocking ELISA on coated human TrkA, 100 nM btNGF; mAb 0.04 nM).
T1 sequence (P04629 other isoform, or with tags, fused parts or gaps limits assumed): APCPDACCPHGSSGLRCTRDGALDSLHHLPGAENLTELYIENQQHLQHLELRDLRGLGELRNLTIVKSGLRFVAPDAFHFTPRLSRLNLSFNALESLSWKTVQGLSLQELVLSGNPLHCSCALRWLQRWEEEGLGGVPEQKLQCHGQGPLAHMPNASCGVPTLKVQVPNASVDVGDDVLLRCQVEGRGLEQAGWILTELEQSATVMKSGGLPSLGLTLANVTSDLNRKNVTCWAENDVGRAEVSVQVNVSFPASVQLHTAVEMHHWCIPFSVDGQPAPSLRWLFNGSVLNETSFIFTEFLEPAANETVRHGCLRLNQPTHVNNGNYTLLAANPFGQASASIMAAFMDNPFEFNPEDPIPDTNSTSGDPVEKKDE
Procedure: (§1) Each row of a 96-well high-binding clear-bottom microtiter plate (Microlon, #655061) was coated overnight at 4° C. with 100 μL/well of recombinant human TrkA protein, diluted to 2 μg/mL in phosphate buffered saline, pH 7.2 (PBS). The next day, the coating solution was removed, and the plate was blocked with 150 μL of Casein-PBS (Thermo Scientific, #37528) for 1 hour at 25° C. with gentle shaking. The plate was then washed three times with PBS supplemented with 0.05% Tween20 (PBST). A two-fold dilution series of exemplified antibodies, along with IgG4 and IgG1 isotype control antibodies, was generated starting at 20 nM in Casein-PBS. 100 μL of the each dilution series sample was added to a well for 30 min at 37° C. with gentle shaking. The plate was then washed three times with PBST. […] The plate was then washed three times with PBST. A 1:3500 dilution of a 1 mg/mL stock solution of streptavidin-HRP (Thermo Scientific, #21130) in Casein-PBS was prepared and […] was added to each well for 20 min at 37° C. with gentle shaking. The plate was washed three times with PBST. […] The reaction was stopped by addition of 100 μL of 1M H₃PO₄ to each well. The absorbance at 450 nm (Abs450) was measured using a SpectraMax 340PC plate reader (Molecular Devices).
With B1 the “Absorbance 450 nm” value was 1.09. With B2 the “Absorbance 450 nm” value was 0.87. With B3 the “Absorbance 450 nm” value was 1.03.

These binders were tested against T1, recombinant human TrkA protein (assay: NGF-blocking ELISA on coated human TrkA, 100 nM btNGF; mAb 10 nM).
Procedure: as §1
For B1, the “Absorbance 450 nm” value was 0.2. With B2 the “Absorbance 450 nm” value was 0.14. In the case of B3, the “Absorbance 450 nm” value is reported as 0.15.

The binders below were run against T1, recombinant human TrkA protein (assay: NGF-blocking ELISA on coated human TrkA, 100 nM btNGF; mAb 20 nM).
For B1, the “Absorbance 450 nm” value was 0.2. For B2, the “Absorbance 450 nm” value was 0.15. B3 was tested, and the “Absorbance 450 nm” value was 0.15.

These binders were tested against T2, Rat TrkA Extracellular Domain (33-411) (rat, UniProt P35739 33-417) (assay: SPR, mAb captured on Protein A chip, 37 C).
T2 construct: SPR analyte
T2 sequence (P35739 other isoform, or with tags, fused parts or gaps): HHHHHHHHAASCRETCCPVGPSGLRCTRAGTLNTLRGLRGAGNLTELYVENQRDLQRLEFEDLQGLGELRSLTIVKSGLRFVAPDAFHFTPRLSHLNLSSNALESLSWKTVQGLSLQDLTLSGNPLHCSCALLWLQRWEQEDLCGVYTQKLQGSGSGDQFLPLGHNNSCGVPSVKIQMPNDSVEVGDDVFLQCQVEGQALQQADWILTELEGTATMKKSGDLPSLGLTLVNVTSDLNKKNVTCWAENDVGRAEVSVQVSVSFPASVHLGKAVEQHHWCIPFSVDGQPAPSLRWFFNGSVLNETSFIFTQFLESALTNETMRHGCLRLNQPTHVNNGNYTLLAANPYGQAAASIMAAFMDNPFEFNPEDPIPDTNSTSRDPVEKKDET
Procedure: (§2) The binding kinetics and affinity of exemplified antibodies to human, cynomolgus monkey, rat, mouse, and rabbit TrkA are determined as described below using a surface plasmon resonance assay on a BIACORE™ 8K instrument (GE Healthcare). Two different isoforms of human TrkA (isoform 1 and isoform 2) are evaluated along with human TrkB and human TrkC. […] All FC2 on all eight channels are set to capture approximately 89 response units (RU) of antibody at a flow rate of 10 μL/min. The antibody sample is prepared at 1 μg/mL by dilution into the running buffer. […] Before the analysis cycle, the chip is regenerated with 3 injections of glycine (pH ˜1.5) at 100 μL/min for a contact time of 15 seconds on FC1 and FC2 in order to clean the surface of the chip.
B1 showed a Kd of 5.1 nM, a koff of 0.00069 s⁻¹ and a kon of 140000 M⁻¹ s⁻¹. With B2 the Kd was 9.1 nM, the koff was 0.0012 s⁻¹ and the kon was 130000 M⁻¹ s⁻¹. B3 showed a Kd of 9 nM, a koff of 0.0012 s⁻¹ and a kon of 130000 M⁻¹ s⁻¹.

The binders below were run against T3, Human TrkA Extracellular Domain Isoform 1 (33-414) (human, UniProt P04629 33-414) (assay: SPR, mAb captured on Protein A chip, 37 C).
T3 construct: SPR analyte; also called Human TrkA Isoform 1
T3 sequence (P04629 other isoform, or with tags, fused parts or gaps): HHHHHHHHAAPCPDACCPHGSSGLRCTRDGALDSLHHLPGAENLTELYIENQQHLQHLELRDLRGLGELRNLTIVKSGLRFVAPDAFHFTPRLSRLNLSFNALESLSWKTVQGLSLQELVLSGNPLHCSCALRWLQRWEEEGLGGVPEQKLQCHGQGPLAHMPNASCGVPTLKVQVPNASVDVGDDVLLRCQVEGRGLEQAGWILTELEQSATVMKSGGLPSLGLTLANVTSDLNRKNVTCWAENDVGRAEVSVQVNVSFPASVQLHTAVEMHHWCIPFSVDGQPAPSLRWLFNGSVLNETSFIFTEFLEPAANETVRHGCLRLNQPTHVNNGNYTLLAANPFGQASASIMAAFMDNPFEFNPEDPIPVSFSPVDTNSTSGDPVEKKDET
Procedure: as §2
B1 was tested, and the Kd was 3.9 nM, the koff was 0.00069 s⁻¹ and the kon was 180000 M⁻¹ s⁻¹. Binder B2 has a Kd of 6.7 nM, a koff of 0.0013 s⁻¹ and a kon of 190000 M⁻¹ s⁻¹. B3 gave a Kd of 6.7 nM, a koff of 0.0013 s⁻¹ and a kon of 200000 M⁻¹ s⁻¹.

The binders below were run against T4, Mouse TrkA Extracellular Domain (33-417 with 396-401 deletion) (mouse, UniProt Q3UFB7 34-417) (assay: SPR, mAb captured on Protein A chip, 37 C).
T4 construct: SPR analyte
T4 sequence (Q3UFB7 other isoform, or with tags, fused parts or gaps limits assumed): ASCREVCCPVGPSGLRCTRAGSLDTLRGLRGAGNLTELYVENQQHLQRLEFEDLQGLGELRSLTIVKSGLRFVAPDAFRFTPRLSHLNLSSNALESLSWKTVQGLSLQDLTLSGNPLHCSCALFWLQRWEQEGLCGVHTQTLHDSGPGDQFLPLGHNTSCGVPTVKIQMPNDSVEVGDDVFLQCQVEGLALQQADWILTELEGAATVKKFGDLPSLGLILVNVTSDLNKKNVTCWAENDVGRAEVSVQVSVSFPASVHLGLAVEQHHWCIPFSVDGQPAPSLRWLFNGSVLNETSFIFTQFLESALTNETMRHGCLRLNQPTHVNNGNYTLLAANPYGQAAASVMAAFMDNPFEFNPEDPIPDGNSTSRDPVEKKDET
Procedure: as §2
B1 gave a Kd of 6.1 nM, a koff of 0.00069 s⁻¹ and a kon of 110000 M⁻¹ s⁻¹. Binder B2 has a Kd of 10.5 nM, a koff of 0.0012 s⁻¹ and a kon of 120000 M⁻¹ s⁻¹. Work on B3 yielded a Kd of 10.2 nM, a koff of 0.0012 s⁻¹ and a kon of 120000 M⁻¹ s⁻¹.

Molecular target: T5, Rabbit TrkA Extracellular Domain (33-414) (rabbit)
T5 construct: SPR analyte; not shown: C-terminal polyhistidine tag (unknown length)
T5 chain: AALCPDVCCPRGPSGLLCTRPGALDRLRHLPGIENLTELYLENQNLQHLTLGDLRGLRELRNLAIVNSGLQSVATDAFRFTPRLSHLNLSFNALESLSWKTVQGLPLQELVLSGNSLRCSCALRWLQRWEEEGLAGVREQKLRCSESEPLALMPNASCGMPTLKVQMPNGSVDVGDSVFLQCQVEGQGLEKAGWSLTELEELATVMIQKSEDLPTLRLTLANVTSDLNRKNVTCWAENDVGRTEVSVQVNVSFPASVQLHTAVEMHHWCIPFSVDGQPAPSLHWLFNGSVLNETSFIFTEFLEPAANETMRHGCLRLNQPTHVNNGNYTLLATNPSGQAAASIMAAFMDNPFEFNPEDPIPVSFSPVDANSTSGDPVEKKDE
Test: SPR, mAb captured on Protein A chip, 37 C
Procedure: as §2
B1 was tested, and the Kd was 2.9 nM, the koff was 0.00061 s⁻¹ and the kon was 210000 M⁻¹ s⁻¹. B2 showed a Kd of 5 nM, a koff of 0.0011 s⁻¹ and a kon of 220000 M⁻¹ s⁻¹. Binder B3 has a Kd of 4.7 nM, a koff of 0.0011 s⁻¹ and a kon of 220000 M⁻¹ s⁻¹.

Each binder was assayed against T6, Human TrkA Extracellular Domain Isoform 2 (33-408) (human, UniProt P04629 33-414) (assay: SPR, mAb captured on Protein A chip, 37 C).
T6 construct: SPR analyte; also called Human TrkA Isoform 2
T6 sequence (P04629 other isoform, or with tags, fused parts or gaps): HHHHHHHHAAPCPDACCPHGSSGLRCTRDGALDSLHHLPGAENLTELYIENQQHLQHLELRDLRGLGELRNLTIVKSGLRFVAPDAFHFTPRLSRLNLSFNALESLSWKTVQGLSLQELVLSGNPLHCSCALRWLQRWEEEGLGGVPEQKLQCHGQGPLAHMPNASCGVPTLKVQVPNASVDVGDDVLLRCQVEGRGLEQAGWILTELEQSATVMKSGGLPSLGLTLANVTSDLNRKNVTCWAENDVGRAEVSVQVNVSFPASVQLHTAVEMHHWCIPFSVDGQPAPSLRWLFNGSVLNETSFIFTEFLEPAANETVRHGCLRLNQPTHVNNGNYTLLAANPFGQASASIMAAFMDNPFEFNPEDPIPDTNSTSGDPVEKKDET
Procedure: as §2
With B1 the Kd was 4.1 nM, the koff was 0.00072 s⁻¹ and the kon was 180000 M⁻¹ s⁻¹. B2 gave a Kd of 6.8 nM, a koff of 0.0013 s⁻¹ and a kon of 190000 M⁻¹ s⁻¹. For B3, the Kd was 6.6 nM, the koff was 0.0013 s⁻¹ and the kon was 200000 M⁻¹ s⁻¹.

Molecular target: T7, Cynomolgus monkey TrkA Extracellular Domain (59-434) (cynomolgus monkey, UniProt P04629 35-414 (human entry))
T7 construct: SPR analyte
T7 chain: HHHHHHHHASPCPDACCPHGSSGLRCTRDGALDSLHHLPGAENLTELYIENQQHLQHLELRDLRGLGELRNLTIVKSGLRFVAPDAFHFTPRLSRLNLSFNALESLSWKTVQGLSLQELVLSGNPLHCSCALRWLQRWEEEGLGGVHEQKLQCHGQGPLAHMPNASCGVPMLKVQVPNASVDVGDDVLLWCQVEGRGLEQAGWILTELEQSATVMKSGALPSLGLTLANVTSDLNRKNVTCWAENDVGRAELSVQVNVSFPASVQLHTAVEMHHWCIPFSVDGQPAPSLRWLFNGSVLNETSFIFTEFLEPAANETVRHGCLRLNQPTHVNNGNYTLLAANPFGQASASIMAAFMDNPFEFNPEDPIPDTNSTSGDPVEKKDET
Test: SPR, mAb captured on Protein A chip, 37 C
Procedure: as §2
B1 was tested, and the Kd was 3.6 nM, the koff was 0.00069 s⁻¹ and the kon was 190000 M⁻¹ s⁻¹. Binder B2 has a Kd of 6.9 nM, a koff of 0.0013 s⁻¹ and a kon of 190000 M⁻¹ s⁻¹. For B3, the Kd was 6.6 nM, the koff was 0.0013 s⁻¹ and the kon was 200000 M⁻¹ s⁻¹.

The binders below were run against T1, recombinant human TrkA protein (assay: NGF-blocking ELISA on coated human TrkA, 100 nM btNGF; mAb 0.02 nM).
Procedure: as §1
With B1 the “Absorbance 450 nm” value was 1.11. For B2, the “Absorbance 450 nm” value was 0.97. With B3 the “Absorbance 450 nm” value was 0.97.

Each binder was assayed against T1, recombinant human TrkA protein (assay: NGF-blocking ELISA on coated human TrkA, 100 nM btNGF; mAb 1.25 nM).
Procedure: as §1
For B1, the “Absorbance 450 nm” value was 0.26. In the case of B2, the “Absorbance 450 nm” value is reported as 0.17. For B3, the “Absorbance 450 nm” value was 0.16.
